According to PMC11997583:

How the values were obtained:
[1] = GFP/γH2AX colocalisation foci after damage, U2OS; conditions: glycan lost; control: GFP-YTHDC1-WT, no inhibitor
[2] = neutral comet assay after Zeocin; conditions: glycan lost; control: YTHDC1-WT rescue after siYTHDC1
[3] = γH2AX foci count after Zeocin release; conditions: glycan lost; control: GFP-YTHDC1-WT
[4] = CCK-8 assay, Zeocin doses and durations; conditions: glycan lost; control: YTHDC1-WT
[5] = GFP foci count after Zeocin or IR, U2OS; conditions: glycan lost; control: GFP-YTHDC1-WT
[6] = Rad51/γH2AX co-staining after Zeocin, U2OS; conditions: glycan lost; control: YTHDC1-WT rescue after siYTHDC1
[7] = FRAP of GFP-YTHDC1 puncta, basal conditions; conditions: glycan lost; control: GFP-YTHDC1-WT
[8] = FRAP of GFP-YTHDC1 puncta, Zeocin vs untreated; conditions: glycan lost; control: GFP-YTHDC1-WT
[9] = chromatin fractionation, anti-Flag blot, Zeocin, 293T; conditions: glycan lost; control: YTHDC1-WT

Substance | localisation_or_trafficking [1] | other: DSB repair kinetics [2] | other: persisting γH2AX foci after damage [3] | other: cell survival after Zeocin [4] | localisation_or_trafficking [5] | other: Rad51 recruitment to DSBs [6] | other: condensate dynamics (FRAP recovery) [7] | other: Zeocin-induced change in FRAP rate [8] | localisation_or_trafficking [9]
YTHDC1: OSMI-1 | decreases | – | – | – | – | – | – | – | –
YTHDC1: S396A | decreases | decreases | increases | decreases | decreases | decreases | increases | abolishes | abolishes
